# Test system: MS2 coat protein
# Experiment: apparent KD of MS2 coat protein; designed switch direction (-1 OFF switch, 1 ON switch): -1; higher = weaker reporter binding
# Procedure, shortened: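 The buffer was Tris-HCl pH 7.5 with KCl, MgCl2, BSA, DTT, tRNA and Tween-20. In it, SNAP-549-labelled MS2 coat protein was titrated in doubling steps from 0.7 or 1.5 nM to 3 µM over chip-bound RNA switches transcribed by stalled E. coli RNA polymerase on Illumina chips. Apparent KD is the per-design median over clusters of curve fits to normalised fluorescence.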
# [1] = Eterna round: R95, input ligand: FMN 200 uM
# [2] = Eterna round: R95, input ligand: microRNA oligo, concentration not stated
# [3] = Eterna round: R95, input ligand: none
# [4] = input ligand: microRNA oligo, concentration not stated
Sequence,apparent KD of MS2 coat protein (input ligand: FMN 200 uM) [nM],apparent KD of MS2 coat protein (input ligand: none) [nM],apparent KD of MS2 coat protein [1] [nM],apparent KD of MS2 coat protein [2] [nM],apparent KD of MS2 coat protein [3] [nM],apparent KD of MS2 coat protein [4] [nM]
"AACGUCGAAGGAUAUACAUGAGGAUCACCCAUGUGGGACCUGUAAUCUCACCCAUCGUGUAGAAGGUUGAGGUA [Learberi] (Eterna round: R97, puzzle: Exclusion 3)",29.9,35.6,,,,
"AAAUUAGCAAGUAGGUCCGACAUGAGGAUCACCCAUGUUAUCUGAAAUAACGCUGCAUGAAAGUGCGCUCGUCUUAG [Sensor-V1 #9] (Eterna round: R97, puzzle: Sensor, turn-off variant 1)",65.3,73.9,,,,
"UAAUGGACAGGAUAUACAUGAGGAUCACCCAUGUCGGCCGGUCCUGUUCUAAGAGCGAGUAGAAGGGUCACGUU [Eternabot (L1) Solution 4] (Eterna round: R97, puzzle: Exclusion 3)",11.6,11.9,,,,
"GAUUAUGCGAGCUUUAGGGACAUGAGGAUCACCCAUGUUCGUCUUAUUGAUCUGGAUACACUAACAUACCUAAAUCU [JMF 13] (puzzle: Sensor v3, turn-off variant 1)",,,26.8,32.3,25.2,
"GAAAAGCGAGGAUAUACUUGCAGUGUACCUCGGGUGAUCUCACUUGAGGAUCACCCAAGUAGAAGGCGCGAGGG [Quletibe] (Eterna round: R97, puzzle: Exclusion 2)",4.5,45.2,,,,
"CAAAGAUAAGGAUAUUGAAGGUUCGACAUGAGGAUCACCCAUGUUAUGUUGGAAAAGGGACAAGAAGGUAUGAAAU [salish99_ex5_r4_213] (Eterna round: R97, puzzle: Exclusion 5)",41.5,40.3,,,,
CCGGUAUAGGAGGAUAUAGGAGUCGAUAGACACCUAGAAGGCCUGACAUGAGGAUCACCCAUGUGUCCUUCCGG [Fiskers Ex 6 - 95] (puzzle: Exclusion 6),,,,17.7,,
"AGAUGUAGAUACCGAUCCUACAUGAGGAUCACCCAUGUAGCUAGACGUGCUCGCGUAGCUCGUCAGACUACCAGUAG [salish99_TOv1_r3_087] (puzzle: Sensor v3, turn-off variant 1)",,,242,156,267,
"UUGUUCCAUGUAGGAUAUGCAUAUUCUUAUUAUGCAGAAGGACAUGAGGAUCACCCAUGUAUGUUAUUAUUAUAUGUUACAUGU [Design 1] (Eterna round: R96, puzzle: Exclusion NG 1)",,,,,,56.7
"ACUCAGUGAGGAUAUCGCCAGAGAGCCACAACGGCCUCUGAUGAGAAGGCACAUGAGGAUCACCCAUGUAAGCA [EX4 C.2] (Eterna round: R97, puzzle: Exclusion 4)",45.4,252,,,,
CGUGACUCAGGAUAUGUAUAAUAUCACAUGAGGAUCACCCAUGUCCAGCGAAAGCUGGAAGCAGAAGGGAGUCACG [Fiskers Ex 5 - 39] (puzzle: Exclusion 5),,,85.1,41.6,111,
"CGUCUGUAAGGAUAUGGUAGCAUUUACAUGAGGAUCACCCAUGUUACAUGGGACUAGUGACUAGAAGGUACGAACG [EX5 #54] (Eterna round: R97, puzzle: Exclusion 5)",106,142,,,,
AAGGAUAGAGGAUAUACAUAGAUACAGAUUCGUGUAGUCCUACAUGAGGAUCACCCAUGUAGAAGGCUAUCCUA [Fiskers Ex 2 - 13] (puzzle: Exclusion 2),,,,11.3,,
"UUAUUGGUAGUGAGGAUAUCGGAUAGAUAGAUAUUCGAGAAGGCACAUGAGGAUCACCCAUGUAAGAUUGGAAA [JR_BMEx4_Sub045] (Eterna round: R97, puzzle: Brourd's mod of Exclusion 4)",155,38.5,,,,
"AGUUGGCGAGGAUAUACAUGAGGAUCACCCAUGUAAAAAAAAAAAAAAAAAACUUCAUGUAGAAGGCGCUGACA [Starry Exclusion 3.4 (biggestlegoheroicafanever round 1 mod)] (Eterna round: R96, puzzle: Exclusion 3)",327,373,,,,200
"AUGGAAGAGCAAUAGCUCUACAUGAGGAUCACCCAUGUAGGAAAUACUGGGUACAGCGGGCUUUUUGCUCGGCUUAU [Alacar Attempt 4] (Eterna round: R97, puzzle: Sensor, turn-off variant 1)",364,412,,,,
"CUCCGGCGUGUAGGAUAUGGUUCCGUUUUGGUUCCAGAAGGACAUGAGGAUCACCCAUGUACAUGUCGUCGGUCGUCACCGGGC [salish99_ExNG1_r04_214] (Eterna round: R96, puzzle: Exclusion NG 1)",104,29.8,,,,22.2

Sequence,apparent KD of MS2 coat protein (input ligand: FMN 200 uM) [nM],apparent KD of MS2 coat protein (input ligand: none) [nM],apparent KD of MS2 coat protein [1] [nM],apparent KD of MS2 coat protein [2] [nM],apparent KD of MS2 coat protein [3] [nM],apparent KD of MS2 coat protein [4] [nM]
"ACCGACAGAGGAUAUGCAAGUAGGAACAUGAGGAUCACCCAUGUGAUACGUGCACGUGCGGCAGAAGGCUGAUCGA [Velamaed] (Eterna round: R97, puzzle: Exclusion 5)",17.1,15.4,,,,
"UAUGGUUAAGUCAGGAUAUACUAAUAGAAAUCUGAGUAGAAGGGACAUGAGGAUCACCCAUGUAUGGUAGUGUU [Ex4 #58] (Eterna round: R97, puzzle: Brourd's mod of Exclusion 4)",77.1,55.2,,,,
"ACUUAUUGAGGAUAUACAUUAAAUUACAUGAGGAUCACCCAUGUUCUUCAAUGUAUAUAUGUAGAAGGCAAAAGAG [Mat - Exclusion 5 - JL Mod - D22] (Eterna round: R97, puzzle: Exclusion 5)",26.5,14.4,,,,
"GGAGGAAGAGAGGAUAUGCGCGCAAGGAGCUUAGCAGAAGGUUCAACAUGAGGAUCACCCAUGUAUGAUCCUCA [AK-MS2ROC-r4-exclusion6-5] (Eterna round: R97, puzzle: Exclusion 6)",341,318,,,,
"GAGUUAACGUGAGGAAUAUACAUGAGGAUCACCCAUGUUAACAAAUUUAUUGCUCGUCUUAUAACAACAAUUAACUC [Alarm 6 - Jieux - Sensor, turn-off variant 1] (Eterna round: R97, puzzle: Sensor, turn-off variant 1)",23,27.7,,,,
"UGCCUAGCAGGAUAUGCCCGGGAUAACAUGAGGAUCACCCAUGUGACCGAUUGAUAUCCUGCAGAAGGGCUAGGGA [JL-EX5-4.10 ViennaUCT mod] (Eterna round: R97, puzzle: Exclusion 5)",62.1,16.7,,,,
"AUCAGCUCGUCAGGAUAUGAACAUGAGGAUCACCCAUGUAAGAUCAAGCUGCUUCGGCAGCAAGUUCAGAAGGGACGAGCUGAU [ENG2/10-B3] (Eterna round: R96, puzzle: Exclusion NG 2)",169,112,,,,93.3
"AUAUUUAAUAUAGGAUAUAGGAAGAAUGAUGAACUAGAAGGAUAACAUACAUGAGGAUCACCCAUGUCCCAUGUGAUCACCCAU [Seems to work in some way] (Eterna round: R96, puzzle: Exclusion NG 1)",,,,,,257
"AGGGAAGAGUGAGGAUAUGGAAAUUUGGUGAGAACAUGAGGAUCACCCAUGUGGAAACAAGAAAAUUAGAAGGUAUAGGGAGGG [AK ExNG2-1.2] (Eterna round: R96, puzzle: Exclusion NG 2)",48,61.3,,,,45.3
"CCGGUUUAGGAGGAUAUAGGAGUCGAUAGACACCUAGAAGGCCUAACAUGAGGAUCACCCAUGUGACCUUCCGG [Mod of Eli 30 - Jieux - Exclusion 6] (Eterna round: R97, puzzle: Exclusion 6)",234,76,,,,
"UUAGAUUGAGGAUAUUUGGAUCCGUACAUGAGGAUCACCCAUGUGUGUAGCACAUUCAACGGAGAAGGCGGUUUCU [Eternabot (L1) Solution 73] (Eterna round: R97, puzzle: Exclusion 5)",143,256,,,,
"ACUUAUAGAGGAUAUACAGAAUAUUACAUGAGGAUCACCCAUGUUCUUCAAUGUAUAUAAGUAGAAGGCUAAGGAU [Mat - Exclusion 5 - JL Mod - D4] (Eterna round: R97, puzzle: Exclusion 5)",183,25.4,,,,
"GAGUUACAUGAGGAUCACCCAUGUGAGGAUAUGAGUCAGUCACGGUGACGUGGCUGACUCAGAAGGCACAAUGG [Mat - Exclusion 1 - JL Mod - D46] (Eterna round: R97, puzzle: Exclusion 1)",256,380,,,,
"CGUCGACAUGUAGGAUAUCUGCACGUUUAGUGCAGAGAAGGACAUGAGGAUCACCCAUGUAGAUCACGACGAAUUAAUUUAAUU [ENG1/6-C2] (Eterna round: R96, puzzle: Exclusion NG 1)",24,1540,,,,205
GCAGGUUAAGUCAGGAUAUACCUAUGGAUACAUAGGUAGAAGGGACAUGAGGAUCACCCAUGUGGCUCACCUGC [Fiskers BMX 4 - 60] (puzzle: Brourd's mod of Exclusion 4),,,,21.6,,
"GAGCCAUCGUGAGAUGGCUAAUAUACAUGAGGAUCACCCAUGUAGGAUAUCGAUUGCUUUGCAGUCGAGAAGGACAUGUUUAAU [JL ENG3 3.97] (Eterna round: R96, puzzle: Exclusion NG 3)",67.4,33.7,,,,26.7
GUUAAGGUAGGAUAUACGAUAAUAGAGGGUAGAUAUAUAACACAUGAGGAUCACCCAUGUAGAAGGACCAAUUG [Mat - Exclusion 2 - Mod of my Tesla design - D58] (puzzle: Exclusion 2),,,91.3,41.2,36.8,

# From the supplement of paper PMC9170038
